Our source for the percent bound relative to AA23 (% relative to AA23) values is publication PMC3418312.

The assay addresses GST fused to the OCA2 N-terminal cytoplasmic domain, AA23 variant harboring the P99S mutation (human) (UniProt Q04671). Nature of the assay: pull-down.
Sequence of UniProt Q04671 (Q04671 1-173 P99S): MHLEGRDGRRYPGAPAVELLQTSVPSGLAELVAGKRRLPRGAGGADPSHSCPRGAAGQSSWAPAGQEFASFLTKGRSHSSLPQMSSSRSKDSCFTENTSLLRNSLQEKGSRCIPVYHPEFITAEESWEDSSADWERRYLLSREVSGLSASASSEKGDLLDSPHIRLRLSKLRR

On to “AP-3 complex from MNT-1 human melanoma cell lysate (from UniProt O14617 1-1153; O00203 1-1094; Q92572 1-193)”, for which the percent bound relative to AA23 (% relative to AA23) amounted to 30.1.
